{"source": "paper PMC6886522", "key": {"[1]": {"system": "O=C(O)c1ccccc1N[C@@H]1O[C@H](COP(=O)(O)O)[C@@H](O)[C@H]1O", "assay": "purified protein"}, "[2]": {"system": "NC(=O)c1ncn([C@@H]2O[C@H](COP(=O)(O)O)[C@@H](O)[C@H]2O)c1N=CN[C@@H]1O[C@H](COP(=O)(O)O)[C@@H](O)[C@H]1O", "assay": "purified protein"}, "[3]": {"substrate": "O=C(O)c1ccccc1N[C@@H]1O[C@H](COP(=O)(O)O)[C@@H](O)[C@H]1O", "assay": "PRA isomerase steady-state kinetics", "type": "biochemical, Streptomyces sp. C"}, "[4]": {"substrate": "NC(=O)c1ncn([C@@H]2O[C@H](COP(=O)(O)O)[C@@H](O)[C@H]2O)c1N=CN[C@@H]1O[C@H](COP(=O)(O)O)[C@@H](O)[C@H]1O", "assay": "ProFAR isomerase steady-state kinetics", "type": "biochemical, Streptomyces sp. C"}, "[5]": {"substrate": "O=C(O)c1ccccc1N[C@@H]1O[C@H](COP(=O)(O)O)[C@@H](O)[C@H]1O", "assay": "PRA isomerase steady-state kinetics", "type": "biochemical, Streptomyces ipomoeae"}, "[6]": {"substrate": "O=C(O)c1ccccc1N[C@@H]1O[C@H](COP(=O)(O)O)[C@@H](O)[C@H]1O", "assay": "PRA isomerase steady-state kinetics", "type": "biochemical, Jonesia denitrificans"}, "[7]": {"substrate": "O=C(O)c1ccccc1N[C@@H]1O[C@H](COP(=O)(O)O)[C@@H](O)[C@H]1O", "assay": "PRA isomerase steady-state kinetics", "type": "biochemical, Streptomyces globisporus"}, "[8]": {"substrate": "NC(=O)c1ncn([C@@H]2O[C@H](COP(=O)(O)O)[C@@H](O)[C@H]2O)c1N=CN[C@@H]1O[C@H](COP(=O)(O)O)[C@@H](O)[C@H]1O", "assay": "ProFAR isomerase steady-state kinetics", "type": "biochemical, Streptomyces globisporus"}, "[9]": {"substrate": "NC(=O)c1ncn([C@@H]2O[C@H](COP(=O)(O)O)[C@@H](O)[C@H]2O)c1N=CN[C@@H]1O[C@H](COP(=O)(O)O)[C@@H](O)[C@H]1O", "assay": "ProFAR isomerase steady-state kinetics", "type": "biochemical, Streptomyces ipomoeae"}, "[10]": {"substrate": "O=C(O)c1ccccc1N[C@@H]1O[C@H](COP(=O)(O)O)[C@@H](O)[C@H]1O", "assay": "PRA isomerase steady-state kinetics", "type": "biochemical, Streptomyces sviceus"}, "[11]": {"substrate": "NC(=O)c1ncn([C@@H]2O[C@H](COP(=O)(O)O)[C@@H](O)[C@H]2O)c1N=CN[C@@H]1O[C@H](COP(=O)(O)O)[C@@H](O)[C@H]1O", "assay": "ProFAR isomerase steady-state kinetics", "type": "biochemical, Mycolicibacterium smegmatis", "conditions": "pH 7.5"}, "[12]": {"substrate": "O=C(O)c1ccccc1N[C@@H]1O[C@H](COP(=O)(O)O)[C@@H](O)[C@H]1O", "assay": "PRA isomerase steady-state kinetics", "type": "biochemical, Mycolicibacterium smegmatis", "conditions": "pH 7.5"}, "[13]": {"substrate": "NC(=O)c1ncn([C@@H]2O[C@H](COP(=O)(O)O)[C@@H](O)[C@H]2O)c1N=CN[C@@H]1O[C@H](COP(=O)(O)O)[C@@H](O)[C@H]1O", "assay": "ProFAR isomerase steady-state kinetics", "type": "biochemical, Streptomyces sviceus"}}, "data": [{"molecule": "PriB_SMg1 (Streptomyces sp.)", "values": [{"measurement": "Km", "setting": "[1]", "result": "129.6 ± 34", "unit": "µM"}, {"measurement": "kcat", "setting": "[1]", "result": "0.29 ± 0.04", "unit": "s⁻¹"}, {"measurement": "kcat/Km", "setting": "[1]", "result": 2200, "unit": "M⁻¹ s⁻¹"}, {"measurement": "Km", "setting": "[2]", "result": "13.2 ± 3.4", "unit": "µM"}, {"measurement": "kcat", "setting": "[2]", "result": "0.92 ± 0.19", "unit": "s⁻¹"}, {"measurement": "kcat/Km", "setting": "[2]", "result": 69000, "unit": "M⁻¹ s⁻¹"}]}, {"molecule": "PriB_SspC (Streptomyces sp. C) (protein) MPNTLELLPAVDVRDGQAVRLVHGVSGSETSYGSPLEAALAWQASGAEWLHLVDLDAAFGTGDNRALVADITRAMDIKVELSGGIRDDATLAAALATGCTRVNLGTAALETPEWAAKAIAEHGDRIAIGLDVRGTTLKGRGWTSEGGDLYETLARLDSEGCARYVVTDIGKDGTLTGPNLELLKNVCAATDRPVVASGGVSSLDDLRALSELVPLGVEGAIVGKALYAKAFTLEEALEAVRA", "values": [{"measurement": "Km", "setting": "[3]", "result": "149.9 ± 29", "unit": "µM"}, {"measurement": "kcat", "setting": "[3]", "result": "1.4 ± 0.12", "unit": "s⁻¹"}, {"measurement": "kcat/Km", "setting": "[3]", "result": 9000, "unit": "M⁻¹ s⁻¹"}, {"measurement": "Km", "setting": "[4]", "result": "11.4 ± 3.4", "unit": "µM"}, {"measurement": "kcat", "setting": "[4]", "result": "2.53 ± 0.74", "unit": "s⁻¹"}, {"measurement": "kcat/Km", "setting": "[4]", "result": 220000, "unit": "M⁻¹ s⁻¹"}]}, {"molecule": "TrpF-3_Sipo (Streptomyces ipomoeae 91-03) (protein) MSVSNSNDSLFIKICGLRTERDVDTAVEAGADAVGFVFSASPRQIDADTAARLCDRVPEHVLTVGVFRDEPLRDVRSFATDSGIRAVQLHGPEDRAYYDDLAKGDWTLIRAAAFGDTVPRCGEFGEDMLLIDAPVPGSGIAWDWSSKPLAGSGERWILAGGLSPENVRDAVAATQPWGVDVSSGVELSRGVKDPALITEFVKAVRGGC", "values": [{"measurement": "Km", "setting": "[5]", "result": "23.0 ± 1.3", "unit": "µM"}, {"measurement": "kcat", "setting": "[5]", "result": "4.3 ± 0.35", "unit": "s⁻¹"}, {"measurement": "kcat/Km", "setting": "[5]", "result": 190000, "unit": "M⁻¹ s⁻¹"}]}, {"molecule": "TrpF-3_Jden (Jonesia denitrificans DSM 20603) (protein) MYIKVCGLTDPHAIDAAQAAHVDAIGFVHAPTSPRHLTPPHISTLTATVDCTIDTVLVVATTPIADALALAESTGVSVLQLHGQYSDDDVAYAAARFPRVWRATSLSASPNLTVGAYGEELLLLDAPQAGSGHTWDFAALAHRRPTGRWLLAGGLTPDNVADAITTTSPWGVDVSSGVESAPGVKDPAKIAAFVQAARGVSCPR", "values": [{"measurement": "Km", "setting": "[6]", "result": "16.8 ± 3.3", "unit": "µM"}, {"measurement": "kcat", "setting": "[6]", "result": "27 ± 1.6", "unit": "s⁻¹"}, {"measurement": "kcat/Km", "setting": "[6]", "result": "1.6e+06", "unit": "M⁻¹ s⁻¹"}]}, {"molecule": "PriA_Sglo (Streptomyces globisporus) (protein) MPKLELLPAVDVRDGQAVRLVHGESGSETSYGSPLEAALAWQSAGAEWLHLVDLDAAFGTGDNRALIAEVAGAMDIKVELSGGIRDDASLEAALATGCRRVNLGTAALETPEWVAKVIAEHGDKIAVGLDVRGTTLRGRGWTRDGGDLYETLARLDAEGCARYVVTDIAKDGTLEGPNLGLLRDVCAVTDRPVVASGGVSSLDDLRAISLLVPEGVEGAIVGKALYAKAFTLEEALKAVAA", "values": [{"measurement": "Km", "setting": "[7]", "result": "11 ± 1.0", "unit": "µM"}, {"measurement": "kcat", "setting": "[7]", "result": "3.8 ± 0.2", "unit": "s⁻¹"}, {"measurement": "kcat/Km", "setting": "[7]", "result": 340000, "unit": "M⁻¹ s⁻¹"}, {"measurement": "Km", "setting": "[8]", "result": "4.2 ± 0.8", "unit": "µM"}, {"measurement": "kcat", "setting": "[8]", "result": "0.74 ± 0.03", "unit": "s⁻¹"}, {"measurement": "kcat/Km", "setting": "[8]", "result": 180000, "unit": "M⁻¹ s⁻¹"}]}, {"molecule": "PriB_Sipo (Streptomyces ipomoeae 91-03) (protein) MAKLELLPAVDVRDGQAVRLVHGESGTETSYGSPLEAALAWQRAGAEWLHLVDLDAAFGTGDNRDLVAEVTRAMDIKVELSGGIRDDASLAKALATGCTRVNLGTAALETPEWVAKVIAEHGDKIAVGLDVKGTTLRGRGWTRDGGDLYETLERLDKEGCARYVVTDIAKDGTLQGPNLELLRNVCAATDRPVVASGGVSSLDDLRAIAELVPLGVEGAIVGKALYAKAFTLEEALEATS", "values": [{"measurement": "Km", "setting": "[9]", "result": "3.8 ± 0.2", "unit": "µM"}, {"measurement": "kcat", "setting": "[9]", "result": "0.82 ± 0.02", "unit": "s⁻¹"}, {"measurement": "kcat/Km", "setting": "[9]", "result": 210000, "unit": "M⁻¹ s⁻¹"}, {"measurement": "Km", "setting": "[5]", "result": "60.8 ± 1.1", "unit": "µM"}, {"measurement": "kcat", "setting": "[5]", "result": "8.25 ± 0.4", "unit": "s⁻¹"}, {"measurement": "kcat/Km", "setting": "[5]", "result": 140000, "unit": "M⁻¹ s⁻¹"}]}, {"molecule": "TrpF-3_Ssvi (Streptomyces sviceus ATCC 29083) (protein) MTLFVKICGLRTEQDVDTAVEAGADAIGFVFSDSPRRIDPAAAARLAARIPESVLTVGVFRREPLEYVRSVAAESGIGAVQLHGPEDRAYYDELSGGGWTLIRAAAFGDRVPRCGELGEDMLLLDAPVPGSGIAWDWSRKQVAGAGEKWLLAGGLTPENVREAVDVTRPWGVDVSSGVEASRGVKNPALITAFVEAARAGAVTSG", "values": [{"measurement": "Km", "setting": "[10]", "result": "9.4 ± 0.47", "unit": "µM"}, {"measurement": "kcat", "setting": "[10]", "result": "0.82 ± 0.08", "unit": "s⁻¹"}, {"measurement": "kcat/Km", "setting": "[10]", "result": 88000, "unit": "M⁻¹ s⁻¹"}]}, {"molecule": "PriA_Msme (Mycolicibacterium smegmatis MC2 155) (protein) MATGATEAAGAGKRGLILLPAVDVVNGQAVRLVQGKAGSETDYGSAIEAAEAWQRDGAEWIHLVDLDAAFGRGSNRELLAEVVGKLDVAVELSGGIRDDESLRAALDTGCARVNIGTAALENPQWCARAIAEHGDRVAVGLDAQTDGAGGFRLRGRGWETDGGDLWEVLDRLDSEGCSRYVVTDVSKDGTLTGPNLDLLAAVAGRTDAPVIASGGVSSLDDLRAIATLTGVGVEGAIVGKALYAGRFTLPQALSAVSG", "values": [{"measurement": "Km", "setting": "[11]", "result": "2.6 ± 0.5", "unit": "µM"}, {"measurement": "kcat", "setting": "[11]", "result": "0.85 ± 0.04", "unit": "s⁻¹"}, {"measurement": "kcat/Km", "setting": "[11]", "result": 330000, "unit": "M⁻¹ s⁻¹"}, {"measurement": "Km", "setting": "[12]", "result": "7.9 ± 2.4", "unit": "µM"}, {"measurement": "kcat", "setting": "[12]", "result": "3.1 ± 0.43", "unit": "s⁻¹"}, {"measurement": "kcat/Km", "setting": "[12]", "result": 390000, "unit": "M⁻¹ s⁻¹"}]}, {"molecule": "PriB_Ssvi (Streptomyces sviceus ATCC 29083) (protein) MPSKLSRLELLPAVDVRDGQAVRLVHGESGTETSYGSPLEAALSWQRAGAEWLHLVDLDAAFGTGDNRELVRQVTEAMDIKVELSGGIRDDASLAAALATGCTRVNLGTAALESPEWVAKVIAEHGDRIAVGLDVRGTTLKGRGWTSEGGDLYEALERLDKEGCARYVVTDIAKDGTLQGPNLELLRNVCAATDRPVVASGGVSSLDDLRAIAELVPLGVEGSIVGKALYAKAFTLEEALEAVAQ", "values": [{"measurement": "Km", "setting": "[13]", "result": "3.9 ± 0.89", "unit": "µM"}, {"measurement": "kcat", "setting": "[13]", "result": "0.69 ± 0.04", "unit": "s⁻¹"}, {"measurement": "kcat/Km", "setting": "[13]", "result": 180000, "unit": "M⁻¹ s⁻¹"}, {"measurement": "Km", "setting": "[10]", "result": "24.5 ± 4.0", "unit": "µM"}, {"measurement": "kcat", "setting": "[10]", "result": "1.6 ± 0.29", "unit": "s⁻¹"}, {"measurement": "kcat/Km", "setting": "[10]", "result": 67000, "unit": "M⁻¹ s⁻¹"}]}]}
